Measurements taken from article PMC8727931.

B1: His-tagged GABARAP [not stated] / GST-FAM134B [not stated] (parent)
chain 1: MKFVYKEEHPFEKRRSEGEKIRKKYPDRVPVIVEKAPKARIGDLDKKKYLVPSDLTVGQFYFLIRKRIHLRAEDALFFFVNNVIPPTSATMGQLYQEHHEEDFFLYIAYSDESVYGL
chain 2: EGDDFELLDQSELDQIESELGLTQDQ

Variants of: B1
Assay: competitive GST pull-down (gel band quantification)
Settings: with GST-FAM134B; competition with MBP-LC3A H27Y in the same reaction; n = 3; read off a plot

Which ratio to parent does the source give for chain 1 Y25H here?
Its ratio to parent is 0.89.

Same assay, conditions: with GST-FAM134B; competition with MBP-LC3A H57D in the same reaction; n = 3; read off a plot

For chain 1 D54H, which ratio to parent is on record?
Its ratio to parent is 1.05.

Same assay, conditions: with GST-FAM134B; competition with MBP-LC3A K30R in the same reaction; n = 3; read off a plot

How did the ratio to parent turn out when chain 1 R28K was run?
Its ratio to parent is 0.87.

Same assay, conditions: with GST-FAM134B; competition with MBP-LC3A K65F in the same reaction; n = 3; read off a plot

chain 1 F62K was tested. Which ratio to parent did it give?
The ratio to parent was 1.05.
